What was measured:
[1] = biological target: T1, human VEGF165-his protein (Acro, Catalog No. VE5-H5248) (human, UniProt P15692-4 27-191); experiment: ELISA, plate coated with human VEGF165-his
T1 construct: Bought protein; also called hVEGF165-His; VEGFA; not shown: his tag
Protocol: ELISA was used to determine the activity of the trispecific antibodies binding to the PD-1 protein: 1 μg/mL human PD-1 protein (Acro, Catalog No.: PD1-H5221) was used to coat a high-adsorption 96-well ELISA plate and incubated at 4° C. overnight. On the next day, the plate was washed three times with PBST solution and blocked with 1% BSA-PBS solution at 37° C. for 1 hour. At the same time, 3-fold gradient dilutions of the antibody were prepared with 1% BSA-PBS solution, with a starting concentration of 10 nM. The antibodies of each gradient concentration were added to the blocked 96-well ELISA plate at 100 µL/well in triplicate and incubated at 37° C. for 1 hour. The plate was then washed three times with 0.05% PBST solution, and 100 μL/well of HRP-labeled secondary antibody (Sigma, Catalog No.: A0170) diluted at 1:5000 was added to the ELISA plate and incubated at 37° C. for 1 hour. The plate was washed three times with 0.05% PBST solution and developed with TMB. The absorbance of the 96-well ELISA plate at 450 nm was detected by an ELISA reader. The OD₄₅₀ value was fitted using a four-parameter model to calculate the EC₅₀ value of each antibody binding to PD-1.
The binding activity of the trispecific antibodies to VEGFA protein was detected by ELISA method as described in Section 2.1. The used human VEGF165-his protein was purchased from Acro, Catalog No.: VE5-H5248.

[2] = biological target: T2, human CTLA-4 protein (Acro, Catalog No. CT4-H52H9) (human, UniProt P16410 36-161); experiment: ELISA, plate coated with human CTLA-4 protein
T2 construct: Bought protein
T2 sequence (P16410 36-161 limits assumed): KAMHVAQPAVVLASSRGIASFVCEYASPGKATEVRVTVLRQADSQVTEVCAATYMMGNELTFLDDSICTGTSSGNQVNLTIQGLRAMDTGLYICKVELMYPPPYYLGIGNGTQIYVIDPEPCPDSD

[3] = biological target: T3, human CTLA-4 on the cell surface (human, UniProt P16410 36-223); experiment: flow cytometry, CHO-hCTLA-4 cells, batch FACS#3
T3 construct: whole, on cells; also called CHO-hCTLA-4 cells; CHOK1-hCTLA4 cells
T3 sequence (P16410 36-223): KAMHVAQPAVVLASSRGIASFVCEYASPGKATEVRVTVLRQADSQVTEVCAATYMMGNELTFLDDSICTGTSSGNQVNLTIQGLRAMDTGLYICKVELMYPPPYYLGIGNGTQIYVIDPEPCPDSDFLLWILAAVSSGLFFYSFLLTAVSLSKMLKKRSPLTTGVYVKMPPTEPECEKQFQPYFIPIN

[4] = biological target: human PD-1 protein (Acro, PD1-H5257) (human, UniProt Q15116 25-167); experiment: competitive ELISA, PD-1 coated, biotin-PD-L1 as labelled ligand
Chain of human PD-1 protein (Acro, PD1-H5257) (Q15116 25-167 limits assumed): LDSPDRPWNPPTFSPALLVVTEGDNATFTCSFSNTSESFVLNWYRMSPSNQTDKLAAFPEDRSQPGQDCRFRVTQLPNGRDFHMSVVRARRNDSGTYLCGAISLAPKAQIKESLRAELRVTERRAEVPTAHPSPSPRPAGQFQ

[5] = biological target: T4, Biotinylated Human VEGF165 (Acro, Catalog No. VE5-H82Q0) (human, UniProt P15692-4 27-191, biotinylated (site not stated)); experiment: flow cytometry: antibody titrated on 293T-hPD-1-hCTLA-4 cells, detected with 2 ug/mL biotin-hVEGF165 and PE streptavidin
T4 construct: Bought protein; also called Biotinylated-hVEGF165; Biotin-hVEGF165
T4 sequence (P15692 other isoform, or with tags, fused parts or gaps limits assumed): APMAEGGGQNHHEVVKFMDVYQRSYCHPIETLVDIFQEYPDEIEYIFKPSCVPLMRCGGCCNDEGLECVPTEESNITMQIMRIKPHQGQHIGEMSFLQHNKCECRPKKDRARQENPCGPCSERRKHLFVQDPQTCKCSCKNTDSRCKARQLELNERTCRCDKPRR
Protocol: After centrifugation at 300 g for 5 minutes, the supernatant was discarded, and 100 μL of trispecific antibody solution serially diluted 3-fold with FACS buffer was added, with a starting concentration of 200 nM, and the same volume of FACS buffer was added as a negative control. After mixing, incubated at 4° C. for 60 minutes. After centrifugation and washing three times with FACS buffer, 2 μg/mL Biotin-hVEGF165 was added at 100 μL/well and incubated at 4° C. for 60 minutes. After centrifugation and washing three times with FACS buffer, 100 μL/well of 1:800 diluted PE Streptavidin (BD, Catalog No.: 554061) was added and incubated at 4° C. for 50 minutes. After centrifugation and washing three times with FACS buffer, 100 μL/well of FACS buffer was added to resuspend the cells, and the fluorescence signal was detected on a flow cytometer (BECKMAN COULTER cytoFLEX). The binding activity was fitted using a four-parameter model, and the EC₅₀ value of each antibody binding was calculated.

[6] = biological target: T4, Biotinylated Human VEGF165 (Acro, …); experiment: flow cytometry: antibody titrated on CHOK1-hCTLA4 cells, then mixture of hPD1-mFc and biotin-hVEGF165; PE streptavidin signal
Protocol: CHOK1-hCTLA4 cells were obtained by trypsin digestion, washed twice with PBS containing 2% FBS (FACS buffer), and the cell density was adjusted to about 8×10⁵ cells/ml. 200 μL/well of the cells were added to a 96-well U-bottom plate. After centrifugation at 300 g for 5 minutes, the supernatant was discarded and 100 μL of antibody solution serially diluted with FACS buffer was added in triplicate (with starting concentration of 200 nM, 3-fold serial dilution, and the same volume of FACS buffer was used as a negative control). Mixed well and incubated at 4° C. for 60 min. After washing the plate three times with FACS buffer, a mixture consisting of 1 μg/mL hPD1-mFc (Acro, Catalog No.: PD1-H5255) and 1 μg/mL Biotin-hVEGF165 in a 1:1 volume ratio was added to each well at 100 μL/well to detect the simultaneously binding activity of the trispecific antibodies to VEGF and PD-1 after binding to cell surface CTLA-4. […] After washing the plate three times with FACS buffer, 100 μL/well of PBS solution was added to resuspend the cells, and the fluorescence signal was detected on a flow cytometer. The binding activity was fitted using a four-parameter model, and the EC₅₀ value of each antibody was calculated.

T1 sequence (P15692 other isoform, or with tags, fused parts or gaps limits assumed): as above

B1: HC010-F9 (trispecific antibody, human IgG4 S228P, kappa)
heavy: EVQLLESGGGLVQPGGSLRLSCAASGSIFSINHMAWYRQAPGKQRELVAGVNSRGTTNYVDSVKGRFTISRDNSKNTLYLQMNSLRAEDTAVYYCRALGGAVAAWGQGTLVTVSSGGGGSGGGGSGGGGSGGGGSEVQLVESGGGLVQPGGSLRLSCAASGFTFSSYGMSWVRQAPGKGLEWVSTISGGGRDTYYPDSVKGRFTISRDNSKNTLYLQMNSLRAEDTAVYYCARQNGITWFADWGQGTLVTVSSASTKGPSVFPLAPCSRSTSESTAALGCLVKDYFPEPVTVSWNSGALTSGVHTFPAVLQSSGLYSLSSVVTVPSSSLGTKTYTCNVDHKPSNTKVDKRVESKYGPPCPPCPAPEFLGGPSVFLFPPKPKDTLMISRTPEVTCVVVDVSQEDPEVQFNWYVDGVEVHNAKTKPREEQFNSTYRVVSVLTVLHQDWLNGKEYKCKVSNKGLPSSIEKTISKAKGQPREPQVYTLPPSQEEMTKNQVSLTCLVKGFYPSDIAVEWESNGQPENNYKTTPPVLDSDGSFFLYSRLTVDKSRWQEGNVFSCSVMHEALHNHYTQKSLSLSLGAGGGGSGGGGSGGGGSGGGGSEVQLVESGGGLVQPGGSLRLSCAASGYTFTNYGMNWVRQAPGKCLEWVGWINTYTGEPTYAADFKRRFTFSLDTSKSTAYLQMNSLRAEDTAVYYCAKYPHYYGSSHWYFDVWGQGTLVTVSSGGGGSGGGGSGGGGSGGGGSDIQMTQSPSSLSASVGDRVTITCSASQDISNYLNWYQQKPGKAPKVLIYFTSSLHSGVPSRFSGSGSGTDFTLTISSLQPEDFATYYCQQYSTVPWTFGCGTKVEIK
light: DIQMTQSPSSLSASVGDRVTITCRASESVDNYGISFMNWYQQKPGKAPKLLIYAASNQGSGVPSRFSGSGSGTDFTLTISSLQPEDFATYYCQQSKEVPWTFGGGTKVEIKRTVAAPSVFIFPPSDEQLKSGTASVVCLLNNFYPREAKVQWKVDNALQSGNSQESVTEQDSKDSTYSLSSTLTLSKADYEKHKVYACEVTHQGLSSPVTKSFNRGEC
notes: light: CQ1-3/1-11 VL-kappa; also called H010-F9
EC50 [1]: 0.111 nM
EC50 [2]: 0.031 nM
EC50 [3]: 2.8 nM
IC50 [4]: 0.923 nM
EC50 [5]: 4.2 nM
EC50 [6]: 1.38 nM

B2: HC010-F10 (trispecific antibody, human IgG4 S228P, kappa)
heavy: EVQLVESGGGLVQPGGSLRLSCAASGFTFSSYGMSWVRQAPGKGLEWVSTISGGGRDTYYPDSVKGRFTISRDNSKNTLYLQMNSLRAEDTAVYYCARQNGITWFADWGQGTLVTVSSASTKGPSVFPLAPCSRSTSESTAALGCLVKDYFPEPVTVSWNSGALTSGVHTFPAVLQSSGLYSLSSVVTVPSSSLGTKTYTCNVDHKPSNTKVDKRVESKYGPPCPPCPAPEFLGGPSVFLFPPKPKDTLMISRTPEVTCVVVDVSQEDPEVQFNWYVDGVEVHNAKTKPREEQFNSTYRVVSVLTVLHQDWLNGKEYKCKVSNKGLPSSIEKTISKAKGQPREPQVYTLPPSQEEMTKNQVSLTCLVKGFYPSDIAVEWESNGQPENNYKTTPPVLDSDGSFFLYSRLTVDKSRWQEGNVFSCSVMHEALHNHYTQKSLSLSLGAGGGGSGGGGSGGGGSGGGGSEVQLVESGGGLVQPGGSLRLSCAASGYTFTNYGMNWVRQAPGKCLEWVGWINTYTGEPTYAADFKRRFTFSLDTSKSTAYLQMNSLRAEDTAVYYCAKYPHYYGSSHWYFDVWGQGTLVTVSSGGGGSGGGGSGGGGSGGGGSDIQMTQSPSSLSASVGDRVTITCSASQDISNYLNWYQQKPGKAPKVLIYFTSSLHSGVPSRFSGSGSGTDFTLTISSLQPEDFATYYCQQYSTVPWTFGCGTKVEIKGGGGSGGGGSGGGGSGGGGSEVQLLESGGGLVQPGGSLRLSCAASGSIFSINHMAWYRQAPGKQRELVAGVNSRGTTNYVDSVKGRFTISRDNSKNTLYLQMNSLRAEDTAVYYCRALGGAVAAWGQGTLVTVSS
light: B1 light
notes: light: CQ1-3/1-11 VL-kappa; also called H010-F10
EC50 [1]: 0.121 nM
EC50 [2]: 0.093 nM
EC50 [3]: 6.19 nM
IC50 [4]: 0.837 nM
EC50 [5]: 4.9 nM
EC50 [6]: 1.37 nM
